Laboratory results from patent US11021533.

Experiments:
[1] = target: all ZIKV strains tested (MR 766, Dakar 41519, Malaysia P6740, H/PF/2013, Brazil Paraiba 2015); assay: cell-based or functional assay
[2] = target: ZIKV strain H/PF/2013 (French Polynesia, 2013) virus (Zika virus, strain H/PF/2013); assay: cell-based or functional assay

Binder	FRNT50 (focus reduction neutralization test on Vero cells) [1]	FRNT50 (focus reduction neutralization test on Vero cells) [2]
ZIKV-117 (antibody, V domains shown) VH: QVQLVESGGGVVRPGGSLRLSCAASGFTFKNYGIHWVRQAPGKGPEWVAFVRYDGNNKYYADSVKGRFTISRDNAKNTLSLQMNSLRVEDTAVYFCARDPETFGGFDYWGQGTLVTVSS VL: ETVMTQSPATLSVSPGERGTLSCRASESVSSNLAWYQQKPGKAPRLLIYGASTRATGIPDRFSGSGSGTEFTLTISSLQSEDFAVYYCQQYYYSPRTFGQGTKVEVK	5 to 25 ng/mL	
ZIKV-88 (antibody, V domains shown) VH: QVQLLESGGGVVQPGRSLRLSCVASGLTFSTSAMHWVRQAPGKGLEWVAVISYDGSYKFYADSVRDQFTISRDNSKTTLYLQMDGLTPEDTAVYYCARGYNDDSSGSYWYFDLWGRGTLVTVSS VL: QSVLTQPPSVSAAPGQKVTMSCSGSSSNIGSNFVSWYQQLPGTAPKVLIFDNNQRPSGIPDRFSGSKSGTSATLAITGLQPGDEAVYHCGTWDSSLTFAVFGGGTKLTVL		420 ng/mL
